The target in one experiment is T1, hMPV047 (hMPV A, UniProt Q6WB98 19-102).
T1 construct: L141C-A159C
The experiment is described as follows: BLI, no stress. In general terms: BLI is a label-free optical method that tracks binding on a fibre tip over time.

In a further experiment the target is T2, hMPV049 (hMPV A, UniProt Q6WB98 19-102).
T2 construct: E146C-T160C
The experiment is described as follows: BLI, no stress.

Another experiment has as its target T3, hMPV052 (hMPV A, UniProt Q6WB98 19-102).
T3 construct: L66P
The experiment is described as follows: BLI, no stress.

In the next experiment the target is T4, hMPV054 (hMPV A, UniProt Q6WB98 19-102).
T4 construct: S132P
The experiment is described as follows: BLI, no stress.

In the next experiment the target is T5, hMPV055 (hMPV A, UniProt Q6WB98 19-102).
T5 construct: N145P
The experiment is described as follows: BLI, no stress.

A further experiment addresses T6, hMPV059 (hMPV A, UniProt Q6WB98 19-102).
T6 construct: V449P
The experiment is described as follows: BLI, no stress.

For a further experiment, the target named is T7, hMPV060 (hMPV A, UniProt Q6WB98 19-102).
T7 construct: A459P
The experiment is described as follows: BLI, no stress.

Another experiment addresses T8, hMPV061 (hMPV A, UniProt Q6WB98 19-102).
T8 construct: G106A
The experiment is described as follows: BLI, no stress.

The target of the next experiment is T9, hMPV063 (hMPV A, UniProt Q6WB98 19-102).
T9 construct: G239A
The experiment is described as follows: BLI, no stress.

For another experiment, the target named is T10, hMPV066 (hMPV A, UniProt Q6WB98 19-102).
T10 construct: T49I
The experiment is described as follows: BLI, no stress.

For the next experiment, the target named is T11, hMPV068 (hMPV A, UniProt Q6WB98 19-102).
T11 construct: A159V
The experiment is described as follows: BLI, no stress.

Another experiment addresses T12, hMPV071 (hMPV A, UniProt Q6WB98 19-102).
T12 construct: T365I
The experiment is described as follows: BLI, no stress.

Another experiment addresses T13, hMPV043 (hMPV A, UniProt Q6WB98 19-102).
T13 construct: G366C-D454C
The experiment is described as follows: BLI, no stress.

Another experiment addresses T14, hMPV044 (hMPV A, UniProt Q6WB98 19-102).
T14 construct: T411C-Q434C
The experiment is described as follows: BLI, no stress.

Another experiment addresses T15, hMPV079 (hMPV A, UniProt Q6WB98 19-102).
T15 construct: T411C-Q434C, A140C-S149C, A459P
The experiment is described as follows: BLI, 58C stress.

The target in the next experiment is T16, hMPV082 (hMPV A, UniProt Q6WB98 19-102).
T16 construct: T411C-Q434C, A140C-S149C, G239A
The experiment is described as follows: BLI, 58C stress.

The target in the next experiment is T17, hMPV083 (hMPV A, UniProt Q6WB98 19-102).
T17 construct: T411C-Q434C, A140C-S149C, A459P, G239A, T49I, T365I
The experiment is described as follows: BLI, 58C stress.

In the next experiment the target is T18, hMPV084 (hMPV A, UniProt Q6WB98 19-102).
T18 construct: T411C-Q434C, L141C-A161C
The experiment is described as follows: BLI, 58C stress.

A further experiment concerns the target T19, hMPV087 (hMPV A, UniProt Q6WB98 19-102).
T19 construct: T411C-Q434C, L141C-A161C, T365I
The experiment is described as follows: BLI, 58C stress.

Another experiment deals with T20, hMPV090 (hMPV A, UniProt Q6WB98 19-102).
T20 construct: T411C-Q434C, L141C-A161C, A459P, G239A, T49I, S149T, T365I
The experiment is described as follows: BLI, 58C stress.

Another experiment addresses T21, hMPV097 (hMPV A, UniProt Q6WB98 19-102).
T21 construct: T411C-Q434C, E146C-T160C, A459P, G239A, T49I, S149T, T365I
The experiment is described as follows: BLI, 58C stress.

For another experiment, the target named is hMPV A F WT Control (hMPV A, UniProt Q6WB98 19-102). The experiment is described as follows: BLI, 58C stress.
The next experiment has as its target hMPV B F WT Control (hMPV B, UniProt Q6WB98 19-102). The experiment is described as follows: BLI, 53C stress.
Another experiment has as its target T22, hMPV100 (hMPV B, UniProt Q6WB98 19-102).
T22 construct: T411C-Q434C
The experiment is described as follows: BLI, 53C stress.

The target of another experiment is T23, hMPV101 (hMPV B, UniProt Q6WB98 19-102).
T23 construct: A140C-S149C
The experiment is described as follows: BLI, 53C stress.

The next experiment addresses T24, hMPV102 (hMPV B, UniProt Q6WB98 19-102).
T24 construct: L141C-A161C
The experiment is described as follows: BLI, 53C stress.

The next experiment addresses T25, hMPV103 (hMPV B, UniProt Q6WB98 19-102).
T25 construct: E146C-T160C
The experiment is described as follows: BLI, 53C stress.

A further experiment addresses T26, hMPV104 (hMPV B, UniProt Q6WB98 19-102).
T26 construct: A459P
The experiment is described as follows: BLI, 53C stress.

A further experiment has as its target T27, hMPV105 (hMPV B, UniProt Q6WB98 19-102).
T27 construct: G239A
The experiment is described as follows: BLI, 53C stress.

The next experiment deals with T28, hMPV106 (hMPV B, UniProt Q6WB98 19-102).
T28 construct: T49I
The experiment is described as follows: BLI, 53C stress.

For another experiment, the target named is T29, hMPV107 (hMPV B, UniProt Q6WB98 19-102).
T29 construct: S149T
The experiment is described as follows: BLI, 53C stress.

A further experiment concerns the target T30, hMPV108 (hMPV B, UniProt Q6WB98 19-102).
T30 construct: T365I
The experiment is described as follows: BLI, 53C stress.

The target of experiment [1] is T31, stabilized hMPV F protein trimer in pre-fusion conformation (human metapneumovirus).
T31 construct: also called preF-hMPV; hMPV pre-fusion F protein
The experiment is described as follows: SPR (Biacore 8K+), mAb captured on Protein A chip. Background: SPR reads the build-up and loss of mass on a sensor chip optically.
Source text: (§1) To avoid conformation changes of F protein while coupling to SPR sensor chip an orientation-specific binding of antibodies through constant (Fc) region was chosen to determine affinity of the newly discovered antibodies using Biacore 8K+ system (Cytiva) and corresponding InSight Software (Cytiva) for analysis. […] Unbound antibodies were washed off with 1×HBS-P buffer. […] Dissociation time was set to 600 seconds to allow for elongated fitting model. Chip was regenerated with two cycles of 4.5M MgCI2 solution. […] Affinity of antibodies were reported in molar concentrations as ratio of dissociation and association.

Experiment [2] deals with T32, stabilized hPIV1 F protein trimer in pre-fusion conformation (human parainfluenza virus 1).
T32 construct: also called preF-hPIV1; HPIV1 pre-fusion F protein
The experiment is described as follows: SPR (Biacore 8K+), mAb captured on Protein A chip.
Source text: as §1

Procedure for hMPV A F WT Control: (§2) The OCTET HTX (Sartorius, Gottingen, Germany) instrument was used to evaluate the expression and conformational integrity for each mutant. All measurements were conducted at 30° C. temperature in 96-well black plates (Corning, Corning, NY) with a final volume of 240 μL per well at a constant agitation rate of 1000 RPM.
(§3) Conformation integrity of hMPV A F protein mutants were evaluated by thermal stress experiments. Crude cell culture supernatants were normalized based on the results of the titer quantitation and then incubated for 1 hour at room temperature and two higher temperatures. […] Anti-Human IgG Fc Capture (AHC) biosensors were first equilibrated in PB before being dipped into more PB to establish the initial baseline. […] The mAb-bound biosensors were then dipped into the thermal stressed cell culture supernatants for 5 minutes. The kinetics analysis was done by OCTET data analysis software (version 12.0, Sartorius) based on curve fitting of the entire associate step.
Procedure for hMPV B F WT Control: (§4) All measurements were conducted at 30° C. temperature in 96-well black plates (Corning, Corning, NY) with a final volume of 240 μL per well at a constant agitation rate of 1000 RPM.
(§5) Conformation integrity of hMPV B F protein mutants were evaluated by a thermal stress experiment. Crude cell culture supernatants were normalized based on the results of the titer quantitation and then incubated for 1 hour at room temperature and two higher temperatures. For the testing of hMPV B single mutants, the two temperatures were 53° C. and 56° C. After the incubation, the protein mutants were probed with prefusion specific monoclonal antibody hMPV-2 by OCTET HTX. Anti-Human IgG Fc Capture (AHC) biosensors were first equilibrated in PB before being dipped into more PB for to establish the initial baseline. Biosensors were incubated with hMPV-2 before being equilibrated in PB to establish the experimental baseline. The mAb-bound biosensors were then dipped into the thermal stresses cell culture supernatants for 5 minutes.
Procedure for hMPV043: as §2, §3
Procedure for hMPV044: as §2, §3
Procedure for hMPV047: as §2, §3
Procedure for hMPV049: as §2, §3
Procedure for hMPV052: as §2, §3
Procedure for hMPV054: as §2, §3
Procedure for hMPV055: as §2, §3
Procedure for hMPV059: as §2, §3
Procedure for hMPV060: as §2, §3
Procedure for hMPV061: as §2, §3
Procedure for hMPV063: as §2, §3
Procedure for hMPV066: as §2, §3
Procedure for hMPV068: as §2, §3
Procedure for hMPV071: as §2, §3
Procedure for hMPV079: as §2, §3
Procedure for hMPV082: as §2, §3
Procedure for hMPV083: as §2, §3
Procedure for hMPV084: as §2, §3
Procedure for hMPV087: as §2, §3
Procedure for hMPV090: as §2, §3
Procedure for hMPV097: as §2, §3
Procedure for hMPV100: as §4, §5
Procedure for hMPV101: as §4, §5
Procedure for hMPV102: as §4, §5
Procedure for hMPV103: as §4, §5
Procedure for hMPV104: as §4, §5
Procedure for hMPV105: as §4, §5
Procedure for hMPV106: as §4, §5
Procedure for hMPV107: as §4, §5
Procedure for hMPV108: as §4, §5

B1: hMPV-2 mAb (antibody, V domains shown)
VH: QVQLQQSGAEVKKPGASVKVSCKASGYTFTSYGISWVRQAPGQGLEWMGWISGYNGNTNYAQTFQGTFTMTTDTSTSTAYMELRRLRSGDTAVYYCARDRYYASGSYNGMDVWGQGTTVTVSS
VL: QSALTQPPSASGAPGQRVTVSCSGSSSNVGSSSVYWYQQLPGTAPKLLIYRNNQRPSGVPDRFSGSKSGTSASLAISGLRSEDEADYYCAAWDDSLSGWVFGGGTKLTVLG
notes: human IgG1
Regarding B1, the “Response Shift” value worked out at 0.268 nm in the experiment with hMPV047; 0.7 nm in the experiment with hMPV049; 0.739 nm in the experiment with hMPV052; 0.682 nm with hMPV054; 0.627 nm with hMPV055; 0.719 nm in the experiment with hMPV059. Also, the “Response Shift” value worked out at 0.769 nm with hMPV060; 0.73 nm with hMPV061; 0.854 nm with hMPV063; 0.767 nm in the experiment with hMPV066; 0.783 nm in the experiment with hMPV068; 0.76 nm in the experiment with hMPV071. Further, the “Response Shift” value worked out at 0.636 nm with hMPV043; 0.797 nm in the experiment with hMPV044; 0.736 nm with hMPV079; 0.804 nm with hMPV082; 0.822 nm with hMPV083; 0.183 nm with hMPV084. Besides, the “Response Shift” value with hMPV087 amounted to 0.763 nm; with hMPV090, 0.77 nm; with hMPV097, 0.905 nm; with hMPV A F WT Control, 0.015 nm; with hMPV B F WT Control, 0.418 nm; in the experiment with hMPV100, 0.854 nm. Further, the “Response Shift” value with hMPV101 came out at 0.716 nm; with hMPV102, 0.572 nm; in the experiment with hMPV103 it was 0.588 nm; with hMPV104 it was 0.336 nm; in the experiment with hMPV105 it was 0.785 nm; in the experiment with hMPV106, 0.828 nm. In addition, the “Response Shift” value was 0.846 nm with hMPV107 and 0.802 nm with hMPV108. The Kd (as a rule, a measure of binding affinity in units of concentration) in experiment [1] is 0.685 nM.

B2: PIV1-8 mAb (antibody, V domains shown)
VH: QVQLVQSGAEVKKPGSSVKVSCEASGGTFSNYVISWVRQAPGQGLEWMGGIIPVFATAKYAQKFQGRVTIIADQSTNTAYLELSSLRSDDTAVYFCASVDSGGTWWDAFAIWGQGTMVTVSS
VL: QAVVTQPRSVSGSPGQAVTISCTGTSSDVGGYNYVSWYQHHPGKAPKLIIYDVTKRPSGVPDRFSGSKSGNTASLTISGLQTEYEADYYCCSYAGSYTLVFGGGTKLTVLG
notes: human IgG1; also called hPIV1-8 mAb; hPIV1-8
As for B2, in experiment [2], the Kd is 0.885 nM.

Source of the values: patent publication US20240252614A1 (Pfizer, published 2024).
